Reference: the supplement of paper PMC10899765

Columns and labels:
Conditions in all cases: 20 nM; 72 h
[1] = system: MCF10A; test: 5+ nucleoli phenotype percent effect (relative to siNT 0% and siKIF11 100%); higher = more cells with five or more nucleoli
Method: (§1)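 After 72 h, cells were fixed and stained with Hoechst and anti-fibrillarin, and nucleoli per nucleus were counted with CellProfiler. Values are plate-adjusted percent effect for the one-nucleolus and 5+ nucleoli phenotypes, normalised to siNT (0%) and to the positive controls siNOL11 or siKIF11 (100%), as the mean of biological triplicates. Percent viability is the nuclei count relative to siNT.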

[2] = system: MCF10A; test: percent viability (nuclei count relative to siNT); higher = more viable cells
Method: as §1

[3] = system: MCF10A; test: one-nucleolus phenotype percent effect (relative to siNT 0% and siNOL11 100%); higher = more cells with one nucleolus (ribosome biogenesis inhibition)
Method: as §1

Sequence | 5+ nucleoli phenotype percent effect [1] [%] | percent viability [2] [%] | one-nucleolus phenotype percent effect [3] [%]
GAGACUGGGGUGGGGCC [hsa-miR-4463] | -7.37 | 64.8 | -14.3
GAGAGCAGUGUGUGUUGCCUGG [hsa-miR-2278] | -44.7 | 30.7 | 40.5
GAGAGGAACAUGGGCUCAGGACA [hsa-miR-6859-5p] | 41.6 | 75.5 | -24.3
GAGCCAGUGGUGAGACAGUGA [hsa-miR-4676-5p] | -5.34 | 53.3 | -15.1
GAGCCAGUUGGACAGGAGC [hsa-miR-575] | 3.98 | 129 | -23.7
GAGCCCCUCUCUGCUCUCCAG [hsa-miR-6769a-3p] | 9.99 | 92.9 | -15.3
GAGCUUAUUCAUAAAAGUGCAG [hsa-miR-590-5p] | -1.22 | 66.5 | -0.31
GAGCUUGGAUGAGCUGGGCUGA [hsa-miR-4538] | -29.6 | 25.3 | 14.4
GAGCUUGGUCUGUAGCGGUU [hsa-miR-4453] | -29.1 | 9.97 | 33.6
GAGCUUUUGGCCCGGGUUAUAC [hsa-miR-208a-5p] | 45.1 | 216 | -31
GAGGAAACUGAAGCUGAGAGGG [hsa-miR-4496] | 40.4 | 88.3 | -13.7
GAGGCAGAAGCAGGAUGACA [hsa-miR-1910-3p] | -17.5 | 38.6 | 25.3
GAGGCUGAAGGAAGAUGG [hsa-miR-4419b] | -30.7 | 58.3 | 21.1
GAGGCUGAGCUGAGGAG [hsa-miR-4478] | -17.6 | 22.9 | 35.1
GAGGCUGAUGUGAGUAGACCACU [hsa-miR-3929] | -13.8 | 30.5 | 14.1
GAGGGCAGAGCCAGCUUCCUGA [hsa-miR-7843-5p] | 13.7 | 32.5 | 16.5
GAGGGCAGCGUGGGUGUGGCGGA [hsa-miR-4632-5p] | 13.1 | 64.3 | 0.575
GAGGGUCUUGGGAGGGAUGUGAC [hsa-miR-1182] | 44.5 | 104 | -20.9
GAGGGUUGGGUGGAGGCUCUCC [hsa-miR-296-3p] | 9.3 | 57.1 | 20.8
GAGGUUUGGGGAGGAUUUGCU [hsa-miR-4748] | -23.1 | 24.1 | 39.1
GAGGUUUUCUGGGUUUCUGUUUC [hsa-miR-329-5p] | 17.3 | 56 | -9.91
GAGUGCCUUCUUUUGGAGCGUU [hsa-miR-515-3p] | 9.82 | 50.3 | -6.31
GAGUGGAUAGGGGAGUGUGUGGA [hsa-miR-6849-5p] | 31 | 126 | -18.4
GAGUGGGGCUUCGACCCUAACC [hsa-miR-1296-3p] | -0.672 | 62.8 | 8.1
